Molecular target: human TNFSF9 (R&D Systems; #2295-4L-025/CF) (human) (UniProt P41273)
Test: MSD ELISA: TNFSF9 + 1 ug/mL antibody, binding to coated TNFRSF9

Chain of human TNFSF9 (R&D Systems; #2295-4L-025/CF) (human) (P41273 71-254 limits assumed): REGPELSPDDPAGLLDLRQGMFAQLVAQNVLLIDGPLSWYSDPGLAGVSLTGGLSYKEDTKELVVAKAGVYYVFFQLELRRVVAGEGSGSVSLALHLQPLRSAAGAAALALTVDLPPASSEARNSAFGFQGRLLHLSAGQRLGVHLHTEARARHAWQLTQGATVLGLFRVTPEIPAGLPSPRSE

Row | % inhibition of ligand receptor interaction [%] | Binder
1 | 8 | SC113.190 (antibody, V domains shown) VH: QVQLQQPGAELVKPGASVKLSCKASGYTFTTYYMYWVKQRPGQGLEWIGGINPSNGDTDFNEKFKSKATLTVDKSSSTVYMQLSSLTPEDSAVYFCTSAGYTSWFAYWGQGTLVTVSA VL: QIVLTQSPALMSASPGEKVTMTCSASSSVSYMNWYQQKPRSSPKPWIYLTSHLASGVPARFSGSGSGTSYSLTISSMEAEDAATYYCQQWSSKPPTFGSGTKLEIK
2 | -2 | SC113.187 (antibody, V domains shown) VH: QVQLQQSGAELAKPGASVKMSCKASGYTFTSYWMYWVKQRPGQGLEWIGYINPSTGYTEYNQKFKDKATLTADKSSSTAYMQLNSLTSEDSAVYYCARSGYYGSSSLAYWGQGTLVTVSA VL: NIVLTQSPASLAVSLGQRATISCRASESVDSYGNSFMHWYQQKPGQPPKLLIYLASNLESGVPARFSGSGSRTDFTLTIDPVEADDAATYYCQQNNEDPWTFGGGTKLEIK

The remaining lines, values behind:

Row | Binder | % inhibition of ligand receptor interaction [%]
3 | SC113.172 (antibody, V domains shown) VH: QGHLQQSGAELMKPGASVKISCKATGYTFSSYWIEWVKQRPGHGLEWIGEILPGSGSTHYNEKFKGKATFTADTSSNTAYMQLISLTSEDSAVYYCARRDAMDYWGQGTSVTVSS VL: DIVMTQSPSSLTVTPGEKVTMSCKSSQSLLTSGNQKNYLTWYQQQPGQPPKLLIYWASTRESGVPDRFTGSGSGTDFTLTISSVQAEDLAVYYCQNDYSYPYTFGGGTKLEIK | -3
4 | SC113.119 (antibody, V domains shown) VH: QVQLQQSGTELARPGASVRLSCKASGYTFTSYGLSWVKQRTGQGLEWIGEIFPGSGNSNYNENFKGKATLTADKSSSTAYMQVSSLSSEDSVVYFCARGGFDFWGQGTSLTVSS VL: DIQMTQSPSSLSASLGERVSLTCRASQEITGYLSWLQQKPDGTIKRLIYAASTLDSGVPKRFSGSRSGSDYSLTISSLESEDFADYYCLQYARYPPTFGGGTKLEIK | -8
5 | SC113.118 (antibody, V domains shown) VH: QVQLQQSGTELARPGASVKLSCKASGYTFTSYGLSWVKQRTGQGLEWIGEIFPGSGNSNYNENFKGKATLTADKSSSTAYMQLSSLTSDDSVVYFCARGGFDYWGQGTTLTVSS VL: DIQMTQSPSSLSASLGERVSLTCRASQEISGFLSWLQQKPDGTIKRLIYAASTLDSGVPKRFSGSRSGSDYSLTISSLESEDFADYYCLQYARYPPTFGGGTKLEIK | 3
